Test [1] concerns the target tumor-associated glycoprotein TAG-72 (human). The experiment in a line: ELISA on TAG-72-coated plates (FIGS. 7 and 8). In general terms: ELISA stands for enzyme-linked immunosorbent assay.
The target is the same in test [2]. The experiment in a line: TAG-72-coated plate assay with 125I goat anti-human IgG probe, Scatchard analysis; mean of 8 analyses.

This passage reports fold less binding than the chimeric MuVH/MuVK antibody and Ka results from patent US20030004318A1.

Substance “humanized CC49 antibody CC49 HuVH/HuVK (ATCC CRL-12209)” displayed a fold less binding than the chimeric MuVH/MuVK antibody in test [1] of 2 fold. The Ka in test [2] is 4.27e+09 M⁻¹.
